Tested on: ERα target genes TFF-1, c-Myc, cyclin D1
Test: mRNA levels of ERα target genes by real-time PCR in BT474 cells
Type: cell-based, human
Settings: BT474, 48 h
Protocol: FIG. 3A) BT474 cells were incubated with 10 μg/mL control and pRNA-HER2apt-siMED1 nanoparticles for 48 h, and MED1 mRNA level was determined by real-time PCR. FIG. 3B) BT474 cells were incubated directly with (as indicated by -) or transfected with indicated pRNAs using lipofectamine 2000. At 48 h post treatment, MED1 protein levels were determined by western blotting. FIG. 3C) BT474 cells were treated with 10 μg/mL pRNA nanoparticles for 48 h and assayed for cell viability by MTT assay. FIG. 3D) Cells were treated as above and seeded for migration, and FIG. 3E) invasion transwell assays. Scale bar: 50 μm. FIG. 3F) After pRNA treatment for 48 h, the mRNA levels of ERα target genes TFF-1, FIG. 3G) c-Myc, and FIG. 3H) cyclin D1 in BT474 cells were determined by real-time PCR.
Cell culture. Human breast cancer luciferase-overexpressing BT474 and MDA-MB-231 cells were maintained in DMEM medium (Hyclone, Thermo Scientific) supplemented with 10% fetal bovine serum (FBS, Sigma) and 1% penicillin/streptomycin (Corning) at 37° C. in a humidified atmosphere with 5% CO2.^53 • Generation of pRNA nanoparticles. The two strands of pRNA were synthesized with the DNA templates, which were amplified with overlapping primers (Sigma) by PCR methods, using a T7 promoter-controlled in vitro RNA transcription system as previously described^33 (Table 1). All the CTP and UTP used for synthesis of the pRNA nanoparticles were 2′-fluoro modified, except the control unmodified pRNA nanoparticles used in the stability assays. […] The hydrodynamic diameter and Tm value of pRNA nanoparticles were determined using dynamic light scattering and TGGE assay, respectively, as previously described.^54 The AFM imaging of the pRNA nanoparticles was performed at the University of Nebraska Medical Center imaging facility as previously reported.^55 Briefly, the pRNA nanoparticles (5 μL) were deposited on APS modified mica ^56 for a total of 2 min of incubation time. […] After washing three times with PBS, the cellular uptake of pRNAs was determined using a BD LSRFortessa™ flow cytometer. • Real-time PCR. […]

B1: pRNA-HER2apt-siMED1: 3-WJ pRNA nanoparticle bearing a HER2-targeting RNA aptamer and two different MED1 siRNAs; strands p1 SEQ ID NO: 3, p2 SEQ ID NO: 4 (nucleic acid)
chain 1: GGACAGUGAAAGUGAGUCAAAGGAUCAAUCAUGGCCAAAGAUGUUACUUUGAGAGCCUU
chain 2: GGCUCUCAAAGUAACAUCUAAGGCCAUGUGUAUGUGGGGGGAGGACGAUGCGGUCUGCUGUGCUUGAUAUGCCCCAGACGACUCGCCCCCCACAUACUUUGUUGAUCCAAUGACUCACUUUCACUGUCCUU
modifications: 2'-F modification; third strand may lack entry; pRNA-HER2apt-siMED1, p1; pRNA-HER2apt-siMED1, p2
significantly down-regulated: TFF-1 mRNA expression | c-Myc mRNA expression | cyclin D1 mRNA expression
